From US20210032365A1 (Chugai, published 2021)

How the values were obtained:
human C1s [1] = biological target: T1, human C1s (human, UniProt P09871 16-688); assay: SPR (Biacore T200, 37C), Ab captured on protein A/G; pH 5.8, 1.2 mM Ca
T1 construct: Analyte in the Biacore assays; also called hC1s; serum-derived human C1s (CompTech)
T1 sequence: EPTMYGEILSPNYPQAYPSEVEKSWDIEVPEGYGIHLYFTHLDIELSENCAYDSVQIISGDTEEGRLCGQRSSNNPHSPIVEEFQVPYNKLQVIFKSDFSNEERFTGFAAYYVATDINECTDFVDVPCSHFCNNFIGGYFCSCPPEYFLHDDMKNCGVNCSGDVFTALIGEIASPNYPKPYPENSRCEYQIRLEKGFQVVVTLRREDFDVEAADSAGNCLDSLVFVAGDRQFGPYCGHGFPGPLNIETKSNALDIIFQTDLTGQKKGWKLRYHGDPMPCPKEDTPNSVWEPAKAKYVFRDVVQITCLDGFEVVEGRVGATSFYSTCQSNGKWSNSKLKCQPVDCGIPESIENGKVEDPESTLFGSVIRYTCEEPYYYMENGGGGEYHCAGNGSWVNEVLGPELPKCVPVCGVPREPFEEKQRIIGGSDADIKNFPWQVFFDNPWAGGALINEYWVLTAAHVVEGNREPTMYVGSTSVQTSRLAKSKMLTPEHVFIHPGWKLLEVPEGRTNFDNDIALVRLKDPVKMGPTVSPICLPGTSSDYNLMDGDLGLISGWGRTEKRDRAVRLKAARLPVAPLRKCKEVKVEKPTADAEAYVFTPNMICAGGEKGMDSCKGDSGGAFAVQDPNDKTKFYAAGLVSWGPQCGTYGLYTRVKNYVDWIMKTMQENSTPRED
Description: (§1) All variants were transiently expressed and purified by the method described above. The binding affinity of each histidine-substituted variant at pH 7.4 and pH 5.8 was determined at 37 degrees C. using Biacore T200 instrument (GE Healthcare). Recombinant Protein A/G (Pierce) was immobilized onto all flow cells of a CM4 sensor chip using an amine coupling kit (GE Healthcare). Antibodies and analytes were prepared in 7(+) buffer (20 mM ACES, 150 mM NaCl, 1.2 mM CaCl2, 0.05% Tween 20, 0.005% NaN3, pH 7.4), 5(+) buffer (20 mM ACES, 150 mM NaCl, 1.2 mM CaCl2, 0.05% Tween 20, 0.005% NaN3, pH 5.8), or 5(−) buffer (20 mM ACES, 150 mM NaCl, 3 micro M CaCl2, 0.05% Tween 20, 0.005% NaN3, pH 5.8). Each antibody was captured onto the sensor surface by protein A/G. Antibody capture levels were aimed at 200 resonance unit (RU). Serum-derived human C1s (CompTech) or recombinant C1s prepared in EXAMPLE 1 was injected at 50 nM, followed by dissociation. The sensor surface was regenerated in each cycle with 10 mM Glycine-HCl, pH 1.5. […] The ratio of KD 5.8+ to KD 7.4+(“KD 5+/7+”) and that of KD 5.8− to KD 7.4+(“KD 5−/7+”) were calculated. When the KD 5+/7+ or KD 5−/7+ of a variant is larger than that of the parent antibody IPN009VH2-SG4GK/IPN009VK3-SK1, that variant is considered to be “pH”- or “pH and Ca”-dependent, respectively. When binding response in 5(+) buffer and/or in 5(−) buffer of a variant is much lower than that of IPN09VH2/IPN009VK3, that variant is also considered as “pH”- and/or “pH and Ca”-dependent. Therefore, such mutations are effective to generate “pH”- and/or “pH and Ca”-dependent antibody. To further enhance “pH” and/or “pH and Ca” dependency, a combination of histidine mutations was conducted. Antibodies with combinations of histidine mutations were evaluated using Biacore by the method described above.

human C1s [2] = biological target: T1, human C1s; assay: SPR (Biacore T200, 37C), Ab captured on protein A/G; pH 5.8, 3 uM Ca
Description: as §1

human C1s [3] = biological target: T1, human C1s; assay: SPR; KD at pH 5.8 (3 uM Ca) over KD at pH 7.4 (1.2 mM Ca)
Description: as §1

human C1s [4] = biological target: T1, human C1s; assay: SPR; KD at pH 5.8 (1.2 mM Ca) over KD at pH 7.4 (1.2 mM Ca)
Description: as §1

human C1s [5] = biological target: T1, human C1s; assay: SPR (Biacore T200, 37C), Ab captured on protein A/G; pH 7.4, 1.2 mM Ca
Description: as §1

human C1s [6] = biological target: T2, human C1s (human, UniProt P09871 16-688); assay: SPR, Ab captured; pH 5.8, 3 uM Ca
T2 construct: also called hC1s; serum-derived human C1s (CompTech)
T2 sequence: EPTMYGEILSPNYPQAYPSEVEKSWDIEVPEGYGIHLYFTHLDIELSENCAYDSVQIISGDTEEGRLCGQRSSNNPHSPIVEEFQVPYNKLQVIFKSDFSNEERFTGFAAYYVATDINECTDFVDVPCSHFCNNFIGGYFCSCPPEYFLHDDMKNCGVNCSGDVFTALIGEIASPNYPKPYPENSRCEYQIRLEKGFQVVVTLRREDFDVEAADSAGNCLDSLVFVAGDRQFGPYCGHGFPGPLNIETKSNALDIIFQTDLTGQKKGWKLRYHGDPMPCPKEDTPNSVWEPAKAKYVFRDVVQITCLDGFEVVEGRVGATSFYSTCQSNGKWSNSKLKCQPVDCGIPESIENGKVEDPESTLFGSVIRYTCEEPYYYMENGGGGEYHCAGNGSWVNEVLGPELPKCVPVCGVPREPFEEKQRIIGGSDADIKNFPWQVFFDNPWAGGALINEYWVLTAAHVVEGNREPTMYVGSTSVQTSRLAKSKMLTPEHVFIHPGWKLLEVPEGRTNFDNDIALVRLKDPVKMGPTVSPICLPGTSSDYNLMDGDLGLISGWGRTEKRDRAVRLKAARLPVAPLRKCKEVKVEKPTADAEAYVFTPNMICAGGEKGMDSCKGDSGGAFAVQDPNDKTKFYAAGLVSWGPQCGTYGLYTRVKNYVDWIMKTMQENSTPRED
Description: as §1

human C1s [7] = biological target: T2, human C1s; assay: SPR; KD pH 5.8 1.2 mM Ca / KD pH 7.4 1.2 mM Ca
Description: as §1

human C1s [8] = biological target: T2, human C1s; assay: SPR; KD pH 5.8 3 uM Ca / KD pH 7.4 1.2 mM Ca
Description: as §1

human C1s [9] = biological target: T2, human C1s; assay: SPR, Ab captured; pH 5.8, 1.2 mM Ca
Description: as §1

human C1s [10] = biological target: T2, human C1s; assay: SPR, Ab captured; pH 7.4, 1.2 mM Ca
Description: as §1

B1: C1_IPN92H0288-SG4GK/IPN93L0058-SK1 (antibody, human IgG4 S228P, kappa)
heavy: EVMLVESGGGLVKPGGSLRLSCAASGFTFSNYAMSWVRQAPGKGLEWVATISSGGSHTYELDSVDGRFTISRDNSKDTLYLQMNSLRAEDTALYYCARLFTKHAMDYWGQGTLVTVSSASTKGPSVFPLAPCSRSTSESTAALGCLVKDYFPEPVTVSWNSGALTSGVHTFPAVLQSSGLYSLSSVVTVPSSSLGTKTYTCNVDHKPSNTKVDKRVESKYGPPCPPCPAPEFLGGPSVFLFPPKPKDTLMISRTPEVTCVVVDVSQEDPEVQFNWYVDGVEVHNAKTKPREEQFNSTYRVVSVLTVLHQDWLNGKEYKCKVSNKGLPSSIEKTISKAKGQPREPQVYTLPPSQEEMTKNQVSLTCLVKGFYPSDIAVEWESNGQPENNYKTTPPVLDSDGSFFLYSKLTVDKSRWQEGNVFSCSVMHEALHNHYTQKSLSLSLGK
light: QIVLTQSPATLSLSPGERATLSCTASSEVSSSYLHWYQQKPGKAPKLWIYSTSNLASGVPSRFSGSGSGTDYTLTISSLQPEDFATYYCHQYYRLHPITFGQGTKLEIKRTVAAPSVFIFPPSDEQLKSGTASVVCLLNNFYPREAKVQWKVDNALQSGNSQESVTEQDSKDSTYSLSSTLTLSKADYEKHKVYACEVTHQGLSSPVTKSFNRGEC
notes: also called IPN92H0288/IPN93L0058
koff (human C1s [1]): 0.0143 s⁻¹ | kon (human C1s [1]): 732000 M⁻¹ s⁻¹ | koff (human C1s [2]): 0.00401 s⁻¹ | kon (human C1s [2]): 504000 M⁻¹ s⁻¹ | KD 5(-)/7(+) (human C1s [3]): 9.5 | KD 5(+)/7(+) (human C1s [4]): 23.3 | koff (human C1s [5]): 0.000548 s⁻¹ | kon (human C1s [5]): 654000 M⁻¹ s⁻¹

B2: C1_IPN92H0026-SG4GK/IPN009VK3-SK1 (antibody, human IgG4 S228P, kappa, name in Kabat numbering, V domains shown)
VH: EVMLVESGGGLVKPGGSLRLSCAASGFTFSNYAMSWVRQAPGKGLEWVATISSGGSHTYYLDSVKHRFTISRDNSKDTLYLQMNSLRAEDTALYYCARLFTGYAMDYWGQGTLVTVSS
VL: QIVLTQSPATLSLSPGERATLSCTASSSVSSSYLHWYQQKPGKAPKLWIYSTSNLASGVPSRFSGSGSGTDYTLTISSLQPEDFATYYCHQYYRLPPITFGQGTKLEIKR
notes: also called IPN92H0026/IPN009VK3
Kd (human C1s [6]): 2.58 nM | koff (human C1s [6]): 0.00171 s⁻¹ | kon (human C1s [6]): 665000 M⁻¹ s⁻¹ | KD 5(+)/7(+) (human C1s [7]): 0.4 | KD 5(-)/7(+) (human C1s [8]): 4.7 | Kd (human C1s [9]): 0.222 nM | koff (human C1s [9]): 0.000162 s⁻¹ | kon (human C1s [9]): 729000 M⁻¹ s⁻¹ | Kd (human C1s [10]): 0.549 nM | koff (human C1s [10]): 0.000236 s⁻¹ | kon (human C1s [10]): 430000 M⁻¹ s⁻¹

B3: C1_IPN92H0033-SG4GK/IPN009VK3-SK1 (antibody, human IgG4 S228P, kappa)
heavy: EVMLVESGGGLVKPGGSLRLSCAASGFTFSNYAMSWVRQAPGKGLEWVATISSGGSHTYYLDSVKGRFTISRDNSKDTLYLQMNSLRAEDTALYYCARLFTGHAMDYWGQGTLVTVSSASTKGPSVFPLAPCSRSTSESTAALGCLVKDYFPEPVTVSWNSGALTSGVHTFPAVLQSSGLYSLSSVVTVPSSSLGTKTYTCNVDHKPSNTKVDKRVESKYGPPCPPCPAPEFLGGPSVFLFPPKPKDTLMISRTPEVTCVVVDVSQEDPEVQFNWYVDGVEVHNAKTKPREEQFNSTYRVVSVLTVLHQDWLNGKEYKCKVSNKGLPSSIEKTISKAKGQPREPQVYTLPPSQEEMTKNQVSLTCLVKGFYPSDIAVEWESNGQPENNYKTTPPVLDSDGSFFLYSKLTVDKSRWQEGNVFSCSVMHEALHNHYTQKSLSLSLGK
light: QIVLTQSPATLSLSPGERATLSCTASSSVSSSYLHWYQQKPGKAPKLWIYSTSNLASGVPSRFSGSGSGTDYTLTISSLQPEDFATYYCHQYYRLPPITFGQGTKLEIKRTVAAPSVFIFPPSDEQLKSGTASVVCLLNNFYPREAKVQWKVDNALQSGNSQESVTEQDSKDSTYSLSSTLTLSKADYEKHKVYACEVTHQGLSSPVTKSFNRGEC
notes: VH = IPN009VH2 with Y99H (Kabat); also called IPN92H0033/IPN009VK3
koff (human C1s [6]): 0.00635 s⁻¹ | kon (human C1s [6]): 664000 M⁻¹ s⁻¹ | KD 5(+)/7(+) (human C1s [7]): 0.7 | KD 5(-)/7(+) (human C1s [8]): 12.1 | koff (human C1s [9]): 0.000372 s⁻¹ | kon (human C1s [9]): 722000 M⁻¹ s⁻¹ | koff (human C1s [10]): 0.00026 s⁻¹ | kon (human C1s [10]): 328000 M⁻¹ s⁻¹

B4: C1_IPN009VH2-SG4GK/IPN93L0024-SK1 (antibody, human IgG4 S228P, kappa)
heavy: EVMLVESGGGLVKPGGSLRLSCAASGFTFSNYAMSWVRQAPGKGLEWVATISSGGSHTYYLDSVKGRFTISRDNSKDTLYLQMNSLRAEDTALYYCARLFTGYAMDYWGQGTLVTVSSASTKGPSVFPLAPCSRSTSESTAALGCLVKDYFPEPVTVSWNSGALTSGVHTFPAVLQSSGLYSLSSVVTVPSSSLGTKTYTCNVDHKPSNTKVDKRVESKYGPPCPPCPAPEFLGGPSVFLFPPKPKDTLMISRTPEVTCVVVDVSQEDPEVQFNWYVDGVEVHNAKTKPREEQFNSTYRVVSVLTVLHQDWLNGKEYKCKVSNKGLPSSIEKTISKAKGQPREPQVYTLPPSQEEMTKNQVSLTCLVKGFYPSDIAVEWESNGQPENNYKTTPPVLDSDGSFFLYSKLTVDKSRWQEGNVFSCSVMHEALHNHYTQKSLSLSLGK
light: QIVLTQSPATLSLSPGERATLSCTASSSVSSSYLHWYQQKPGKAPKLWIYSTSNLASGVPSRFSGSGSGTDYTLTISSLQPEDFATYYCHQYYRLHPITFGQGTKLEIKRTVAAPSVFIFPPSDEQLKSGTASVVCLLNNFYPREAKVQWKVDNALQSGNSQESVTEQDSKDSTYSLSSTLTLSKADYEKHKVYACEVTHQGLSSPVTKSFNRGEC
notes: VL = IPN009VK3 with P95H (Kabat); also called IPN009VH2/IPN93L0024
koff (human C1s [6]): 0.132 s⁻¹ | kon (human C1s [6]): 5.92e+06 M⁻¹ s⁻¹ | KD 5(+)/7(+) (human C1s [7]): 1.6 | KD 5(-)/7(+) (human C1s [8]): 9.1 | koff (human C1s [9]): 0.00149 s⁻¹ | kon (human C1s [9]): 384000 M⁻¹ s⁻¹ | koff (human C1s [10]): 0.000574 s⁻¹ | kon (human C1s [10]): 233000 M⁻¹ s⁻¹
